A word on the IC50: it is the concentration at which inhibition is half-maximal.

These results are taken from patent US20220089699A1 (AstraZeneca / MedImmune, published 2022).

The target in the assay is T1, biotinylated ClfA001 (Staphylococcus aureus).
T1 chain: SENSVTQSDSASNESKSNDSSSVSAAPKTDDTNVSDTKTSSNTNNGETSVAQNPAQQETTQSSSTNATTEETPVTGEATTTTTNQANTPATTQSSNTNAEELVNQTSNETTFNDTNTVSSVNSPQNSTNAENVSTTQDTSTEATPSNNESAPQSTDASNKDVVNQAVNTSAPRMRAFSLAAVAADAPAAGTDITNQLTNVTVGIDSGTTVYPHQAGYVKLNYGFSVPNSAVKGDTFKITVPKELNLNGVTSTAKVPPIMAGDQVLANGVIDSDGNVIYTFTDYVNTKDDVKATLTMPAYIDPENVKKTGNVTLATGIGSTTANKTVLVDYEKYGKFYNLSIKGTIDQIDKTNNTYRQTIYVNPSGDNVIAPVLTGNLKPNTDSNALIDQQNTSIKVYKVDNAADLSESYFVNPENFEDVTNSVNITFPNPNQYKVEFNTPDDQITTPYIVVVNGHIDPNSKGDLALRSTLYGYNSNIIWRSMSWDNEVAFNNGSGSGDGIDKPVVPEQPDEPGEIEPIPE
As to the kind of experiment: fibrinogen-binding inhibition ELISA: biotinylated ClfA001 (2 µg/ml) on a fibrinogen-coated plate, antibody titrated. A general note: ELISA stands for enzyme-linked immunosorbent assay.

B1: SAR114 (antibody, V domains shown)
VH: QVQLQESGPGLVKPSETLSLTCTVSGGSIQNSYWSWIRQPPGKGLEWIGYLYSSGRTNYTPSLKSRVTISVDTSKNQFSLKLSSVTAADTAVYYCARTHLGGFHYGGGFWFDPWGQGTLVTVSS
VL: DIQMTQSPSSLSASVGDRVTITCRASQSITSYLNWYQQKPGKAPKLLIYASSSLQSGVPSRFSGSGSGTDFTLTISSLQPEDFATYYCQESYSTPPTFGQGTKVEIK
notes: also called anti-ClfA mAb SAR114
B1 yielded an IC50 of 3.02 µg/mL.
